This note sets out measurements from patent publication US20260022160A1 (AFFYXELL THERAPEUTICS, published 2026).

Values joined by “and” are separate entries in the source; they are usually repeats but may differ in a detail not shown here. Identical values can stand only once.

As usually defined, the EC50 is the concentration needed to bring the measured effect to its halfway point.

In assay [1] the target is T1, human Mega CD40L recombinant protein (Enzo Lifesciences) (human, UniProt P29965 116-261).
T1 sequence (looked up): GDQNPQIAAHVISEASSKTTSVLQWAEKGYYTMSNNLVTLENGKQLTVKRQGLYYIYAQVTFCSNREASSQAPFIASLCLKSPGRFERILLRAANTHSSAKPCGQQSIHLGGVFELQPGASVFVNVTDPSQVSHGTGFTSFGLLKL
Briefly: cell-based or functional assay.

Assay [2] deals with T2, recombinant human CD40L (R&D Systems, 6420-CL-025/CF) (human, UniProt P29965 108-261, limits assumed).
T2 sequence (looked up): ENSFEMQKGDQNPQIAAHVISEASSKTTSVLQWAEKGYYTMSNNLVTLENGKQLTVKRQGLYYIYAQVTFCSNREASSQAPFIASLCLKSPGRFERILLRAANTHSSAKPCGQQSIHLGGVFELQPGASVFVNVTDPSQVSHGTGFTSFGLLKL
Briefly: binding ELISA, plate-coated recombinant human CD40L, concentrated culture fluid; first-named of the two gene-introduced cell lines (two promoters); promoter not told. As to the method:
(§1) Each cell line was inoculated into a T175 flask at a cell density of 4.0×10³ cells/cm² using a culture medium. After culture at 37° C. and 5% CO₂ for 18 to 24 hours, the culture medium was thoroughly replaced with a fresh culture medium every 2 days, followed by culture. After culture for 3 days, the cells were harvested, and 7.0×10⁶ cells were inoculated into a T175 flask, followed by culture at 37° C. and 5% CO₂ for 18 to 24 hours. The culture medium was thoroughly removed, and the remaining medium was completely removed through washing with 10 mL of MEM alpha. 30 mL of an MEM alpha medium was added to a T175 flask, followed by culture for 48 hours. After 48 hours, all of the cell culture fluid was harvested and then centrifuged to remove residual cells and impurities. The cell culture fluid was transferred to a Vivaspin 20 and centrifuged, the culture fluid was concentrated, and the stefin A protein variant was quantified through sandwich ELISA (LSBio, LS-F4620). […] The unbound stefin A protein variant was removed through washing, after which the extent of binding between the stefin A protein variant and CD40L was detected based on a difference in absorbance resulting from reaction with a TMB substrate.
In general terms: An ELISA detects its analyte on a solid surface through an enzyme-linked reagent.

For assay [3], the target named is T2, recombinant human CD40L (R&D Systems, …). Briefly: binding ELISA, plate-coated recombinant human CD40L, concentrated culture fluid; second-named of the two gene-introduced cell lines (two promoters); promoter not told. As to the method: as §1
Assay [4] addresses T1, human Mega CD40L recombinant protein …. Briefly: cell-based or functional assay. This is another data set of the same source.

B1: XT75 anti-CD40L stefin A protein variant secreted by gene-introduced MSC (eMSC) (designed binder)
chain: IPGGLSEAKPATPEIQEIVDKVKPQLEEKTGETYGKLEAVQYKTQVVHYYVHYNDQGTNYYIKVRAGDNKYMHLKVFKSLWGENLFAKWEDLVLTGYQVDKNKDDELTGFAEAAAKEAAAKEAAAKEAAAKEAAAKEAAAKMIPGGLSEAKPATPEIQEIVDKVKPQLEEKTGETYGKLEAVQYKTQVVHYYVHYNDQGTNYYIKVRAGDNKYMHLKVFKSLWGENLFAKWEDLVLTGYQVDKNKDDELTGFAEAAAKEAAAKEAAAKEAAAKEAAAKEAAAKMIPGGLSEAKPATPEIQEIVDKVKPQLEEKTGETYGKLEAVQYKTQVVHYYVHYNDQGTNYYIKVRAGDNKYMHLKVFKSLWGENLFAKWEDLVLTGYQVDKNKDDELTGFAEAAAKEAAAKEAAAKEAAAKEAAAKEAAAKMIPRGLSEAKPATPEIQEIVDKVKPQLEEKTGETYGKLEAVQYKTQVLANFFQRRWPGSTNYYIKVRAGDNKYMHLKVFNGPWKFRNTDRGADRVLTGYQVDKNKDDELTGF
notes: also called eMSC (XT75, w/EF1A); eMSC (XT75, w/CBh)
For B1, in assay [1], the “IC50 (read off the curve)” value is ~300 pM and ~400 pM. The EC50 in assay [2] was 3.9 pM; in assay [3], 5.3 pM. Further, the “IC50, HEK-Blue CD40L cell assay” value in assay [4] is 303 pM and 400 pM.
